Test results from IntAct's records for PubMed 19279667.

B1: Integrin beta-3 (Homo sapiens), P05106 (parent)
chain: MRARPRPRPLWATVLALGALAGVGVGGPNICTTRGVSSCQQCLAVSPMCAWCSDEALPLGSPRCDLKENLLKDNCAPESIEFPVSEARVLEDRPLSDKGSGDSSQVTQVSPQRIALRLRPDDSKNFSIQVRQVEDYPVDIYYLMDLSYSMKDDLWSIQNLGTKLATQMRKLTSNLRIGFGAFVDKPVSPYMYISPPEALENPCYDMKTTCLPMFGYKHVLTLTDQVTRFNEEVKKQSVSRNRDAPEGGFDAIMQATVCDEKIGWRNDASHLLVFTTDAKTHIALDGRLAGIVQPNDGQCHVGSDNHYSASTTMDYPSLGLMTEKLSQKNINLIFAVTENVVNLYQNYSELIPGTTVGVLSMDSSNVLQLIVDAYGKIRSKVELEVRDLPEELSLSFNATCLNNEVIPGLKSCMGLKIGDTVSFSIEAKVRGCPQEKEKSFTIKPVGFKDSLIVQVTFDCDCACQAQAEPNSHRCNNGNGTFECGVCRCGPGWLGSQCECSEEDYRPSQQDECSPREGQPVCSQRGECLCGQCVCHSSDFGKITGKYCECDDFSCVRYKGEMCSGHGQCSCGDCLCDSDWTGYYCNCTTRTDTCMSSNGLLCSGRGKCECGSCVCIQPGSYGDTCEKCPTCPDACTFKKECVECKKFDRGALHDENTCNRYCRDEIESVKELKDTGKDAVNCTYKNEDDCVVRFQYYEDSSGKSILYVVEEPECPKGPDILVVLLSVMGAILLIGLAALLIWKLLITIHDRKEFAKFEEERARAKWDTANNPLYKEATSTFTNITYRGT

Variants of: B1
Settings: with ita2b_human ITGA2B

Row | effect of a mutation on the interaction | Variant
1 | decreasing interaction | D749A

Variants of: B1
Settings: with ita2b_human ITGA2B
Remark: another data set of the same source

Row | effect of a mutation on the interaction | Variant
2 | decreasing interaction | I719A

Variants of: B1
Settings: with ita2b_human ITGA2B
Remark: another data set of the same source

Row | effect of a mutation on the interaction | Variant
3 | decreasing interaction | W741Y

Variants of: B1
Settings: with ita2b_human ITGA2B
Remark: another data set of the same source

Row | effect of a mutation on the interaction | Variant
4 | decreasing interaction | L738A
